According to paper PMC9993118:

Experiments:
Conditions in all cases: EMSA: Pierce EMSA kit conditions, 15 min, 7.5% polyacrylamide gel at room temperature; footprinting: 20 mM Tris-HCl pH 7.5, 80 mM NaCl, 1 mM EDTA, 100 ug/ml …
[1] = molecular target: T1, Lrp (UniProt P0ACJ0); assay: competition EMSA
T1 sequence: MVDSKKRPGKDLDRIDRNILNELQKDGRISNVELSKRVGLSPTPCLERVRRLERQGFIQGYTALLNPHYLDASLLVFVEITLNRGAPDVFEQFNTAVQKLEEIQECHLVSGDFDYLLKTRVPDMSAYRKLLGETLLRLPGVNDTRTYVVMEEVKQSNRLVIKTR

[2] = molecular target: T2, Fis (Escherichia coli) (UniProt P0A6R3); assay: EMSA
T2 sequence: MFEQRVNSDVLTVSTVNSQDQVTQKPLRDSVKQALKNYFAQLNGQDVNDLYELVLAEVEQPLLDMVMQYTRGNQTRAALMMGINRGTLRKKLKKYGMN

[3] = molecular target: T1, Lrp; assay: EMSA

| Sequence | binding [1] | binding [2] | binding [3] |
| --- | --- | --- | --- |
| CCCCCAAAAGATGAAACATTTGGGGCCATTTTGACTCATAGAGGAAAGCATCGCGGACAAACTTTTTCAGTTTATTTGTTGGCTTAATATTCTATTGTTATCTTTATTTATAGATGTTTATATTGCATGAGGTGG (double strand) [fimS 135 bp probe (wild type)] | binds | binds | binds |
| CCACCTCATGCAATATAAACATCTATAAATAAAGATAACAATAGAATATTAAGGGGTTAGCTAAACTGAAAAAGTTTGTCCGCGATGCTTTCCTCTATGAGTCAAAATGGCCCCAAATGTTTCATCTTTTGGGGG (double strand) [fimS 135 bp probe, Fis site disrupted] | – | binds more weakly | binds more weakly |
